From the domain aggregation screens of Martell et al. (2025)

Assay: soluble fraction after stress (log2 fold change); higher = more stays soluble; pooled small domains, quantitative proteomics
Conditions: stress: 75 degC
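Further: 20 min heating vs room temperature control held 20 min.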

| Sequence | soluble fraction (log2) |
| --- | --- |
| HMVVMEIGANGSEVVKLQKRLNQLGYYTEHASGVYDVKTASAVNEFQRQNELNATGKADYTTLDMIYNQ | -0.00159 |
| HMINIFKVKKAMEEIFASEWEDSPYTDQKISQILWSRGFSVSTGLVEKYRGQMGVPDANSRLNLN | -2.49 |
| HMSSYETVTLNGQRYFKYKVKSGEGLYAISRMFSTPIAEIIRHNPSSNAGLKNGQELLIPVN | -0.356 |
| HMVKFGERVKQLRLSAGMTQEQLAERIWVTKAAISNYELSERNPSPETIIKIAGVFGVTTDYLLGLED | -1.9 |
| HMGVDKLTPREREVLALMAQGASNREIEGKLVLTAGAVSKHVANVFMKLGFSPEDENRRVKAVLAWLRTK | -2.86 |
| HMLIELKIPSEWAGKSLHTLNLRQNYNVNVIGFRDEKSGKLNTHFDPSKKLPDEGIILVVADNRTLEKF | -0.7 |
| HMSKHATLLEALAELTVKLKPHTQLPSERQLSEDFGVSRMTLRRAIDVMQSRGYIYTVPSKGLYVSEP | -1.72 |
| HMRSQLALVVRTGESQRLDNFLVNNLAWKSRNRLQGLIREGLVTVNGEKTKASRRVHLDDLVEIHL | -1.31 |
| HMEEIPYGVISAKAGAAAYDYIKKSIELGIEKKIDGVATAPIQKEAIHMAGISYIGHTEMYQGIT | 0.178 |
| HMKRSVIVTAERAEVRQKADEGSALVFEAEKNVSLEYLEAAPGGWVKVRHLDGQSGFVRGNQI | -0.309 |
| HMIEGSSDWKPNMILDDGGDLTKIIHEEYQDLLDDIRGLSEETTTGVLRLYEMEKENSLAVPAINVND | 0.171 |
| HMKDTFHNLSEEKRERIIRAALGEFAASGYEKATLDGVVQAAGISKGGLYEYISSKEDLFRYLLEYSYD | -1.82 |
| HMAPLVTLEADGNGAVKLSNLAGHSIREVAGALGGAGLSLIPVGSGTSWKQNPAPGTVLHSGDTVTVYF | 0.177 |
| HMLAQISDEGAIGAVVARVLDAHPNEVARYHAGEEKVAKFLMGAAMRELRGKGDPAVVQRLLSEGLDARRV | -0.00832 |
| HMENLFPDYTMQDYRIVRSELSSKFKVQTVPVTTATATENKIVRQEPEAGSRITEGMTVILYYSIGPE | -1.51 |
| HMGKINEIVANNIAILRKKNRLSLEELGKLSGVSKSMLALIEKGDGNPTLGILWKIANGLGVPFDELTRRP | -1.35 |
| HMKYRPGDVVTLRVARMGEMGAFLDAGTGNTNDDILLHKMQQTEEIKAGQDVKVYLYLDPNRRLTASMKL | -0.835 |
| HMQQDGSSSLGENMLNQELQARGVVPSEIPQEVWERVIQEAGKKSKREIYADIGLGRSLAAGFAQRLAA | 0.145 |
| HMSVGDLPPEAREIWKLLDGRELSLDLLAEETGRETGALLSTLMMLEMKLLVEHGSDMVYRRIPRR | -2.85 |
| HMAEWLLVQLTNGNWFYGEVIEKTDATIVLNTDILGKVSIQKLDIRRSISGPLTAAKRQEIEDSERAKD | -1.65 |
| HMPFREGDEVFVELVEPHMYNEDDAVAKLDGYVVAVRGAAGLVGQKVLVRIERVGRSSAEATLVA | -0.0609 |
| HMSSQVFLGQKNSIAKYDLNENKPIWTKEIKGTPLILSTWKDMLLIQIQTWVSYTHMLVKQENGQTVWE | 0.288 |
| HMAPLATIHVSSLSQKPFYLYGTFEDRRGNHLFFLEQIMGENKSIPVAMPSSAINPKIHASLTPPKG | -0.494 |
| HMEDIQPSVIFQNNMIDGFKKFGVSFLQNRRNVNVNTLNGLASAGTYPKWQQLLVNKISYIDMLLSTGG | 0.0954 |
| HMKESRFDYDAVLLYSDKDSITEVKDAVQHLTKEFGSVFTTKKIPEKATFGKLFRIEKGEVNIIEDN | 0.367 |
| HMKITADQEIETAINYFKKSIAEKGWKGVNPDEFKQMNDYLSETFGYSATIKFQKALDEQGLMVDE | -0.0068 |

| Sequence | soluble fraction (log2) |
| --- | --- |
| HMNETLKQIRINALQYSEKDMATKLGLPLSEYKEIENDKPLNFTLLIRLSQAVGKTIDDLLNAQ | -0.95 |
| HMDDNMNEQWKMILNSIAKKGSVTRQETEKILGIGQTRAHVLLKAMIHAGMIKAVGDGKKRRYVR | -2.28 |
| HMVMRHTVEHDAELLAVLRLMYPASSSTKLRKMLTQGRVLVNDDVVHRAKHGVASGDTVDVIVRQRAE | -2.21 |
| HMLDFGQEDSEAVSEIILVLGRYWMDFSHKKYPEAEGSALRHKGISHIFTVLKPYLTSATAQLIEQRLQQ | -0.0669 |
| HMQQLAEQIPTDRPYISIAEAVVLFGISRDTIYRQIRKGNIPAVNLGERLTRISRIHIEAMFPKV | -0.305 |
| HMPRPLVAPMPGLIVRVTAVVGDSVDAGQGLVVMEAMKMENELRTTTAGVVKTVHVQPGVAVEKGALLIEF | -0.827 |
| HMTFDWAAYEISEKEIRVMSLVAEGFSNKEIAQELFLSEGTVRNYISNILEKLGLRDRTQLAVHYLKAV | -3.83 |
| HMSPSLVEAMRLRMYEMGLNQAKLSELLGVSPSRVSDYLTGRSEPTLKVARDISRKLNIDASIVLG | -1.68 |
| HMFASSADGVEGLKTNPIFASTKEKSDAGKLLYTRYLAIGIFRMLELAKATDPKALEALVEAGG | 0.259 |
| HMDYGSISFINWSIEVLSVIKTRLDRGDKIIDEVSGEKYTASSFEKFVRKNFSSYIFSQVYAEDHKK | -2.73 |
| HMNSTEQQTERFLATLTSLGGNAGNQRLQEALGWQGSTYQRIKQHLLDEGRIRTGRGRGGSVALSEATAT | 0.0863 |
| HMTRAETPMAFIRAMVEAYTERGLDPNQALRKAQITPSQLKSTNARVTTLQMEWMSETAMREL | -0.292 |
| HMGGFNATTLQNIEELRRSLSDADQFGRHEVIETIGGSDSRAGKLLKKMLEAGIIEQVKGHGKGRYRFKRT | 0.0983 |
| HMSNKYYETILDWFKSQIMSGELKEGDTIPSERELATRFGVSRVPVREALRILEYIGIVSNTADGMTVQKV | -1.72 |
| HMREVTVGSAVRLKKGAKTYSGGSLASFVYERNHQVTQLSGDRAVISFKGTVVAAVHKDDLIL | -1.06 |
| HMSDNLSASERKALSHMEGMESVRSSEVADLLGMSQRGAQKLLNRLVDKGLASSFGANRNRRYSVE | 0.144 |
| HMQRFIHITVSDVHQATRLLEEEMQLTNYSVAENNAIKIFEFTYEPQEINHLFGKNGIEVSSLFIGS | -0.0559 |
| HMSETVYQYVARQLRDMLGSGEIPVGQQLPTYRELAKRFQVSLSVIQRAMRQLKAEAVVSIAHGQGVKAVR | -1.16 |
| HMNDSGIIGVVINDHEKYEGHVLEDGFISSSLSALSREIDVAGYFMMVKTVVYEGFFQELKGIGNV | 0.16 |
| HMSVSATQMDAFVRQLRARLSSADGLDDAARLVRQDLEPFLGRFSDETERDFAAAIEQVRGSIRPVEI | -0.139 |
| HMAHLNYQTVDINALIRHSLQLVSQDAQSRGIALQFTPRPELTTISADPDRLNQVLLNLYLNAMQD | -0.607 |
| HMKKYLNIYNIIVNKIESKEYQSNDKLPSEKELMDQYNVSRDTVRKSLNMLEQNGYIQKTKGKGSFVLDIN | -0.865 |
| HMVSLPSPLAGKVVSLTVQAGQEVKEGDEIMVLEAMKMNTQVHAPSSGRILALRVQPGDQVEEGQTLVTMG | 0.14 |
| HMTGSETLQDIFAHLEAGTVRTALSLIPRLDAVEYEQNRQRIAELAGVRPSALDDLRKQAKREEN | ≥ 1.04 |
| HMAGTRVWSENGQLYVTAAVSGRANVYNVLGKLNRSLTFSAGETKSVSVPAGIYVVSLNNGKAYKVAV | -3.28 |
| HMQVTEVDYGTFMKMVEEKNVGEVEVGNSMIVFTDKDGKAIYKTGAMNDPNLTERLYNAGASFTKE | 0.144 |

| Sequence | soluble fraction (log2) |
| --- | --- |
| HMDAIAYLGSRLKEIRLKSGLSLREIARQLDVSPSFISQIENGKSQPSVATLYAFAKLLNVPVDVLFQPS | -2.59 |
| HMELSAQEIGRRLRIARENADIRQDDAAQVIGMSRPTLVSIEKGVRRVRIQEIQMLARHYGVSVNALLR | -2.2 |
| HMSATPQRMSIINELDSARKNLSAYDLRDSLKDKGHSFNISTIYRVLSFWIDVGVVHKMDSSNTYL | -0.111 |
| HMQLDDDQKEELILKLIDSLDTTKKGAPLTELAREAAKSNIGESELEEITTSLLDKGLVYEPTIGKMKR | 0.394 |
| HMGGASVTDQQIRDFVSAHTDDPMAIYKAAVANGISSARLAQVTGISIADIEAFVRKNNLPSF | -0.0535 |
| HMESAESRVDLIGMIGEAITDLRPAGTAQFGEERIDVVSESEWITEGSTVKVVSAEGYRHVVRVME | -0.358 |
| HMPTLSKVGSQGEEVRQIQTKLKNWGYLNDRVDGIYGPKTRDAVIWFQKKNGLVADGIAGPATLKAMGIFT | -0.142 |
| HMPILRDEVYLSIKEAILTGELAPGERISIGRLLPQIGFSPTPIREALLKLEQEGFVSRLQRGGFIVSR | -1.91 |
| HMDGQGIRSITPEYYLSDSATKMPDASSSGWKSVPDDYIDKHYYWVRSKILWDDGTYTTTTPVL | -0.17 |
| HMLKNYATPEQRAQLDMLKDKGIIGENELMQLGKYPSQDKASEVLENHADAVKMLDSDEISNRAEAIRSHD | 0.173 |
| HMAEPYDEDKVMEHLYIKGKDVVIAHLKHLKEHNEHVWLKKGVEWMQKNQDRLGFDMMEVIYVVHNH | -0.833 |
| HMTKQEYLNQLKNELVKQGVADAEDVVTEYEQHFAFKLADGFGEEEIAKKLGDPAAIASQFVG | 0.669 |
| HMGTKRWELPRRVQQMATQHGKSISTAAAEELVSRSGENTRMLDNDLVKLAQMVEAPQIELADVERWIVR | 0.207 |
| HMNAEGLIGREAVALTAVDAHGGRVRLGGEEWSARLSKENGGVSRLSVGDPVRVTDIDGAIAVVAP | 0.118 |
| HMDEWFPVNDDYKFMVGDEVRTPDGLVKVVATHNDSATFYGKIITPIHDDVLKGETYEYRSYEAQVLA | -0.331 |
| HMQVSEQVQRLLDALENDTLTTKELMDRLGLKHRPTFRKNYLLPSMKLGLVEMTIPDKPNSSRQKYRRRQ | -0.566 |
| HMSRVSVDGEEVNFEGEIPDDPSRIYELLMGALSEQSRVVVKFFVDGKDALLDEGFPSRYQMIEAESV | -0.0462 |
| HMDNPVPVIITDQNFQPQLWKNVGVPTDTLFHELSAANQRKLENLMKTMIQTPLTDNGKISGYAFYSK | -0.00686 |
| HMSNLVEVPAVIGRMKEDAITMLISAGLEPAVTYDEYPLVKENLVADQSVAPGQKVEKGSFVTITVSRS | -0.0726 |
| HMVLSVRDRMVQILDQVKTGEYKRIEDFFSADEGRTGFVVSFVAILELVKGGLLTITQSKNLAPIYVRLPN | -0.0123 |
| HMLVYQRLDKDNFIFEGKTLLNDIYKILDIESNYFEAIRGEADSIAGLLLEIAKSIPTINTEF | -0.362 |
| HMSEQTLEDVRRLIEHLPESQKEVVKMRYYQDLSFKEIADLKGISINTALGRMHYAINNMRKMAKEYGL | -1.94 |
| HMGDKVLIQTAQRLKKDLPFASIVSRFGGDEFLIFLPGISSTERVETIVKKTVFLFIAISTTLF | -0.28 |
| HMRSLVDRSVQAVTDHIRENALRVGDSLPGEAYFATSLGVSRAVMREAFGALAALRVIDVGNGRKPRVGAI | -0.687 |
